Data published in the supplement of paper PMC9732359.
± gives the uncertainty stated by the source.

Test: protein stability index of a GFP-peptide fusion (yeast GPS) (PSI 1-4); higher = more stable; sorted into four equal gates, so the index is relative within each strain
Outline: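 For each peptide, the protein stability index sums the read frequency in every gate after multiplying it by the gate number. Read frequencies came from plasmids that were PCR-amplified from each gate and Illumina-sequenced, with reads assigned to strains by barcodes. The gates were four equal bins of GFP/Cherry fluorescence ratio applied to mid-log yeast in leucine-free medium carrying a pooled library of tiled 17-residue yeast protein peptides fused downstream of GFP on a Cherry-expressing plasmid.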

| Sequence | protein stability index (doa10∆) | protein stability index (pdr5∆) | protein stability index (san1∆) | protein stability index (ubr1∆) |
| --- | --- | --- | --- | --- |
| LCKTKMVCETDVPSEDD [RPO21] | 2.99 ± 0.071 | 3 ± 0.093 | 3.25 ± 0.074 | 2.52 ± 0.067 |
| INNNINIPQQQQMQPPN [GAL11] | 2.58 ± 0.07 | 2.87 ± 0.073 | 2.83 ± 0.049 | 2.84 ± 0.056 |
| NAISLQLKYDTSVQEKE [YIL149C/MLP2] | 2.61 ± 0.13 | 2.33 ± 0.12 | 2.75 ± 0.099 | 2.92 ± 0.07 |
| HEIYGSMPLEQLIPIIL [SRB4] | 2.06 ± 0.06 | 2.08 ± 0.068 | 2.37 ± 0.08 | 1.72 ± 0.059 |
| MCQNPMQKPVPFVPVLD [FAS1] | 1.47 ± 0.039 | 1.54 ± 0.034 | 1.29 ± 0.061 | 1.52 ± 0.031 |
| KIREDHINKIPSNSTTT [SRB8] | 2.63 ± 0.051 | 2.71 ± 0.044 | 2.54 ± 0.056 | 2.81 ± 0.034 |
| AMEFIFGNSLICEDPET [SMC2] | 2.38 ± 0.073 | 2.25 ± 0.054 | 1.37 ± 0.094 | 1.88 ± 0.049 |
| PSLRKLIESGIGTHHAG [BRR2] | 3.16 ± 0.19 | 3.38 ± 0.28 | 3.11 ± 0.2 | 3.64 ± 0.13 |
| PDFEKLLPFVKGNVGFV [RPP0] | – | – | – | 1.89 ± 0.19 |
| LEDLFSYRNGMASYMLN [YJR042W/NUP85] | 1.6 ± 0.071 | 1.25 ± 0.15 | 1.89 ± 0.13 | 2.42 ± 0.11 |
| EATREVFGISKTSSGSY [ITC1] | 3.33 ± 0.09 | 3.09 ± 0.077 | 3.23 ± 0.068 | 3.29 ± 0.041 |
| AYSPKQDEQKHNENENS [RPO21] | 2.65 ± 0.065 | 2.49 ± 0.072 | 2.57 ± 0.09 | 2.68 ± 0.061 |
| NPDDLMKAVRKVAEVKK [RPT4] | – | 3.4 ± 0.25 | – | – |
| QSEHLEAVVDQDVQRTC [FAS1] | 3.47 ± 0.25 | 3.36 ± 0.14 | 3.49 ± 0.094 | 3.38 ± 0.095 |
| ALRALQENGTIFRGSLI [YDL088C/ASM4] | 2.02 ± 0.11 | 1.68 ± 0.076 | 1.28 ± 0.1 | 1.53 ± 0.092 |
| ALLIAGHDADDGYQLFH [PUP2] | 2.29 ± 0.16 | 2.86 ± 0.17 | 3.22 ± 0.12 | 2.66 ± 0.13 |
| LKFNSTEYRGTLVSTDN [SMX3] | 1.74 ± 0.04 | 2.59 ± 0.049 | 2.27 ± 0.067 | 2.25 ± 0.041 |
| WLAEKFQKETNMKVTIL [PRP28] | 2.81 ± 0.18 | 3.17 ± 0.11 | 3.27 ± 0.25 | 2.79 ± 0.11 |
| KRSQKKHKKKHLKHENA [RPB4] | 3.03 ± 0.044 | 2.96 ± 0.052 | 3.09 ± 0.037 | 3.25 ± 0.043 |
| PSSQSQNDTPMFKLGNF [YLR018C/POM34] | 2.54 ± 0.044 | 2.8 ± 0.046 | 2.79 ± 0.036 | 2.6 ± 0.028 |
| GDPALVYKFMSLAKSSA [ECM29] | 3.22 ± 0.11 | 2.77 ± 0.08 | 2.54 ± 0.089 | 3.09 ± 0.054 |
| SNTSTSKMLDAASSQVS [SNF12] | 2.51 ± 0.052 | 2.8 ± 0.042 | 2.5 ± 0.12 | 2.83 ± 0.051 |
| GPHKGKAPRILSTGRKF [RPL18A] | 2.81 ± 0.26 | – | 3.21 ± 0.16 | 2.92 ± 0.13 |
| PLASEESLTNSNMFDNS [YGL100W/SEH1] | 3.38 ± 0.18 | 3.02 ± 0.19 | 3.07 ± 0.12 | 3.29 ± 0.086 |
| VTLDITTLTIMRILPRE [RPT4] | 2.53 ± 0.057 | 2.25 ± 0.061 | 2.17 ± 0.081 | 2.45 ± 0.038 |
| SPLNTTTKILGDKILGN [YML103C/NUP188] | 2.33 ± 0.055 | 2.63 ± 0.049 | 2.45 ± 0.059 | 2.12 ± 0.028 |
| RCGRRSFHVQKKTCSSC [RPL37A] | 2.3 ± 0.04 | 2.56 ± 0.061 | 2.47 ± 0.048 | 2.39 ± 0.038 |
